± gives the uncertainty stated by the source.
B1: POU domain, class 3, transcription factor 2, residues 356 to 411; numbered along this chain, P20265 (parent)
chain: KKRTSIEVSVKGALESHFLKCPKPSAQEITSLADSLQLEKEVVRVWFCNRRQKEKR

Variants of: B1
Test: abundance fitness (aPCA) (normalised: wild type 0, dead -1); higher = more abundant; growth selection in yeast, the domain comes from the species named
Conditions: Homo sapiens

Row | Variant | abundance fitness
1 | KKRTSIEVSVLGALESHFLKCPKPSAQEITSLADSLQLEKEVVRVWFCNRRQKEKR [K11L] | 0.03 ± 0.087
2 | KKRTSIEVSVHGALESHFLKCPKPSAQEITSLADSLQLEKEVVRVWFCNRRQKEKR [K11H] | 0.031 ± 0.12
3 | KKRTSIEVSVTGALESHFLKCPKPSAQEITSLADSLQLEKEVVRVWFCNRRQKEKR [K11T] | -0.027 ± 0.11
4 | KKRTSIEVSVEGALESHFLKCPKPSAQEITSLADSLQLEKEVVRVWFCNRRQKEKR [K11E] | 0.038 ± 0.11
5 | KKRTSIEVSVAGALESHFLKCPKPSAQEITSLADSLQLEKEVVRVWFCNRRQKEKR [K11A] | -0.094 ± 0.091
6 | KKRTSIEVSVNGALESHFLKCPKPSAQEITSLADSLQLEKEVVRVWFCNRRQKEKR [K11N] | -0.143 ± 0.15
7 | KKRTSIEVSVCGALESHFLKCPKPSAQEITSLADSLQLEKEVVRVWFCNRRQKEKR [K11C] | -0.264 ± 0.13
8 | KKRTSIEVSVWGALESHFLKCPKPSAQEITSLADSLQLEKEVVRVWFCNRRQKEKR [K11W] | -0.039 ± 0.13
9 | KKRTSIEVSVFGALESHFLKCPKPSAQEITSLADSLQLEKEVVRVWFCNRRQKEKR [K11F] | -0.139 ± 0.2
10 | KKRTSIEVSVPGALESHFLKCPKPSAQEITSLADSLQLEKEVVRVWFCNRRQKEKR [K11P] | -0.269 ± 0.13
11 | KKRTSIEVSVGGALESHFLKCPKPSAQEITSLADSLQLEKEVVRVWFCNRRQKEKR [K11G] | -0.134 ± 0.091
12 | KKRTSIEVSVRGALESHFLKCPKPSAQEITSLADSLQLEKEVVRVWFCNRRQKEKR [K11R] | -0.126 ± 0.082
13 | KKRTSIEVSVKSALESHFLKCPKPSAQEITSLADSLQLEKEVVRVWFCNRRQKEKR [G12S] | 0.097 ± 0.082
14 | KKRTSIEVSVKEALESHFLKCPKPSAQEITSLADSLQLEKEVVRVWFCNRRQKEKR [G12E] | 0.079 ± 0.13
15 | KKRTSIEVSVKTALESHFLKCPKPSAQEITSLADSLQLEKEVVRVWFCNRRQKEKR [G12T] | 0.21 ± 0.093
16 | KKRTSIEVSVKDALESHFLKCPKPSAQEITSLADSLQLEKEVVRVWFCNRRQKEKR [G12D] | -0.027 ± 0.093
17 | KKRTSIEVSVKIALESHFLKCPKPSAQEITSLADSLQLEKEVVRVWFCNRRQKEKR [G12I] | 0.193 ± 0.13
18 | KKRTSIEVSVKVALESHFLKCPKPSAQEITSLADSLQLEKEVVRVWFCNRRQKEKR [G12V] | 0.22 ± 0.086
19 | KKRTSIEVSVKHALESHFLKCPKPSAQEITSLADSLQLEKEVVRVWFCNRRQKEKR [G12H] | -0.015 ± 0.099
20 | KKRTSIEVSVKKALESHFLKCPKPSAQEITSLADSLQLEKEVVRVWFCNRRQKEKR [G12K] | -0.056 ± 0.15
21 | KKRTSIEVSVKPALESHFLKCPKPSAQEITSLADSLQLEKEVVRVWFCNRRQKEKR [G12P] | -0.152 ± 0.11
22 | KKRTSIEVSVKYALESHFLKCPKPSAQEITSLADSLQLEKEVVRVWFCNRRQKEKR [G12Y] | -0.058 ± 0.15
23 | KKRTSIEVSVKCALESHFLKCPKPSAQEITSLADSLQLEKEVVRVWFCNRRQKEKR [G12C] | 0.039 ± 0.098
24 | KKRTSIEVSVKAALESHFLKCPKPSAQEITSLADSLQLEKEVVRVWFCNRRQKEKR [G12A] | 0.124 ± 0.093

Row | Variant | abundance fitness
25 | KKRTSIEVSVKQALESHFLKCPKPSAQEITSLADSLQLEKEVVRVWFCNRRQKEKR [G12Q] | -0.053 ± 0.13
26 | KKRTSIEVSVKFALESHFLKCPKPSAQEITSLADSLQLEKEVVRVWFCNRRQKEKR [G12F] | -0.085 ± 0.17
27 | KKRTSIEVSVKRALESHFLKCPKPSAQEITSLADSLQLEKEVVRVWFCNRRQKEKR [G12R] | -0.045 ± 0.084
28 | KKRTSIEVSVKNALESHFLKCPKPSAQEITSLADSLQLEKEVVRVWFCNRRQKEKR [G12N] | -0.153 ± 0.16
29 | KKRTSIEVSVKLALESHFLKCPKPSAQEITSLADSLQLEKEVVRVWFCNRRQKEKR [G12L] | 0.117 ± 0.084
30 | KKRTSIEVSVKMALESHFLKCPKPSAQEITSLADSLQLEKEVVRVWFCNRRQKEKR [G12M] | 0.068 ± 0.14
31 | KKRTSIEWSVKGALESHFLKCPKPSAQEITSLADSLQLEKEVVRVWFCNRRQKEKR [V8W] | -0.131 ± 0.1
32 | KKRTSIEHSVKGALESHFLKCPKPSAQEITSLADSLQLEKEVVRVWFCNRRQKEKR [V8H] | 0.128 ± 0.15
33 | KKRTSIEPSVKGALESHFLKCPKPSAQEITSLADSLQLEKEVVRVWFCNRRQKEKR [V8P] | 0.119 ± 0.17
34 | KKRTSIENSVKGALESHFLKCPKPSAQEITSLADSLQLEKEVVRVWFCNRRQKEKR [V8N] | 0.212 ± 0.19
35 | KKRTSIEFSVKGALESHFLKCPKPSAQEITSLADSLQLEKEVVRVWFCNRRQKEKR [V8F] | 0.065 ± 0.18
36 | KKRTSIEDSVKGALESHFLKCPKPSAQEITSLADSLQLEKEVVRVWFCNRRQKEKR [V8D] | -0.064 ± 0.14
37 | KKRTSIELSVKGALESHFLKCPKPSAQEITSLADSLQLEKEVVRVWFCNRRQKEKR [V8L] | 0.007 ± 0.09
38 | KKRTSIESSVKGALESHFLKCPKPSAQEITSLADSLQLEKEVVRVWFCNRRQKEKR [V8S] | 0.096 ± 0.079
39 | KKRTSIECSVKGALESHFLKCPKPSAQEITSLADSLQLEKEVVRVWFCNRRQKEKR [V8C] | -0.327 ± 0.14
40 | KKRTSIEESVKGALESHFLKCPKPSAQEITSLADSLQLEKEVVRVWFCNRRQKEKR [V8E] | 0.093 ± 0.12
41 | KKRTSIEMSVKGALESHFLKCPKPSAQEITSLADSLQLEKEVVRVWFCNRRQKEKR [V8M] | 0.046 ± 0.11
42 | KKRTSIEQSVKGALESHFLKCPKPSAQEITSLADSLQLEKEVVRVWFCNRRQKEKR [V8Q] | 0.069 ± 0.13
43 | KKRTSIETSVKGALESHFLKCPKPSAQEITSLADSLQLEKEVVRVWFCNRRQKEKR [V8T] | 0.011 ± 0.11
44 | KKRTSIEISVKGALESHFLKCPKPSAQEITSLADSLQLEKEVVRVWFCNRRQKEKR [V8I] | 0.051 ± 0.1
45 | KKRTSIERSVKGALESHFLKCPKPSAQEITSLADSLQLEKEVVRVWFCNRRQKEKR [V8R] | 0.049 ± 0.094
46 | KKRTSIEGSVKGALESHFLKCPKPSAQEITSLADSLQLEKEVVRVWFCNRRQKEKR [V8G] | 0.091 ± 0.075
47 | KKRTSIEASVKGALESHFLKCPKPSAQEITSLADSLQLEKEVVRVWFCNRRQKEKR [V8A] | 0.202 ± 0.11

— the Human Domainome abundance scans (Beltran et al. 2025)
